Assay results published in the supplement of paper PMC12764529.
± gives the half width of the 95% confidence interval.

Key:
[1] = folding stability dG unfold from chymotrypsin proteolysis; higher = more stable
Summary of the method: (§1)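 How resistant each design was to proteolysis was captured as K50, inferred by Bayesian fitting of sequencing counts. Unfolding free energy was then derived relative to a sequence-predicted unfolded-state K50 and a shared folded-state K50, per protease or combined. Digestion used trypsin and chymotrypsin at 11 threefold-diluted concentrations plus a no-protease condition, on mini-proteins under 80 residues without cysteine in a PA-tagged cDNA display construct. Designs were kept only when AlphaFold2 dimer inter-PAE was above 15.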

[2] = folding stability dG unfold (combined trypsin and chymotrypsin); higher = more stable
Summary of the method: as §1

[3] = folding stability dG unfold from trypsin proteolysis; higher = more stable
Summary of the method: as §1

Row | Sequence | folding stability dG unfold [1] [kcal/mol] | folding stability dG unfold [2] [kcal/mol] | folding stability dG unfold [3] [kcal/mol]
1 | SDKIKNMTIEEILKKLPKGVKVGEKVEIEIDGKKITITKVEVVKDKNGKEIKRIYIEVEIDGEKIIIEIESA [r9_279_TrROS_Hall] | 2.36 ± 0.27 | 2.69 ± 0.46 | 2.39 ± 0.23
2 | SDMKIRIDDIDIQPLDEDGQPITINYKIEFGGQPVYFQIEIWVKPDGPVVIKIDIYNPDNGKPFEWTFPISA [r9_241_TrROS] | 2.83 ± 0.08 | 2.48 ± 0.23 | 2.13 ± 0.09
3 | SDPGHKFKMEIVREIYLPGQIRIFVHKMEHPNGNPWVNVMVRNPDGQMEPIAMVPSDDPDAKDEALKLIKSA [r9_1069_TrROS] | 0.506 ± 0.14 | 0.391 ± 0.1 | 0.035 ± 0.12
4 | SDRIEIEIWRHPNWWMIKIKVRDDGEPVGTQSFPVDDGMDIEEIADNLLNRNPNYKVEITEIEPMPPPPGSA [r9_364_TrROS] | 3.82 ± 0.12 | 3.36 ± 0.41 | 2.86 ± 0.16
5 | SDYMPVHKMESDGKRNPNGQHEYEPKMEPVWVPVPPPPPRIRIPPEWREKLKELAEKLGHPITDDDINKISA [r9_487_TrROS] | 0.0759 ± 0.051 | -0.13 ± 0.31 | -0.283 ± 0.19
6 | SEALEKAAEAGVKTIYVYVKPGDLEEIKRLKALDVKIVLYATEEIPPEAFEALPGVKVEKVEWISPEELPSA [r9_671_TrMRF] | 2.08 ± 0.052 | 1.65 ± 0.1 | 0.759 ± 0.023
7 | SEEELENLPNVVRLELEVEIDGVRVRIETEFRLNEDGSLEVRTRIEVEPLPPPVEVVLDENGELVEVRVESA [r9_456_TrROS_Hall] | 3.42 ± 0.13 | 3.12 ± 0.14 | 2.81 ± 0.08
8 | SEGSVRLEFTFTLPDGTRLTVEVTVHYDAATGEFHVSVSVRVEPLPDTSRPWEERPVRLPDGTWVSAADLSA [r9_898_TrMRF] | 2.28 ± 0.1 | 2.5 ± 0.13 | 2.54 ± 0.071
9 | SEITIKLKVENLSEEELKKLAEELAKEGLFEITSIKVENGYVTITIKKKPKPPPKPEKKKVVFDKDGKPVSA [r9_830_TrROS_Hall] | 2.58 ± 0.12 | 2.2 ± 0.14 | 0.975 ± 0.071
10 | SEITIYNKGKPPPEELLEALKKAPGFPPEDLRKNTKVEPNKDGPQITIPPEQAEQMSKRNPRIMEAIRELSA [r9_160_TrROS] | 1.75 ± 0.37 | 1.44 ± 0.48 | 1.64 ± 0.098
11 | SEKLTEEEVEKLAEELAKELEEETGKKVTVEVEVEKVEVEKDGEKEEVEVVRIKITVDPETGEVTIEVEPSA [r9_9_TrROS_Hall] | 1.43 ± 0.2 | 1.56 ± 0.45 | 1.49 ± 0.11
12 | SEKPPKVKIVSVEYNPETGTVTITVEVEPGQKVRIFVRNSDGSVQEIDLESKTITINLPPGAEIVRIEVLSA [r9_113_TrROS_Hall] | 4.16 ± 0.12 | 4.09 ± 0.14 | 3.9 ± 0.23
13 | SEKVKKELNEAGYPVKDIKFVPEKGYAYITVEVYVPEVDKKVEKEIVIPFPDSATPEQLTEAARKALEADSA [r9_184_TrMRF] | 3.04 ± 0.076 | 3.09 ± 0.092 | 3.04 ± 0.11
14 | SEMTAEELAARLAERLAEEHPGEEVTVEIEVEAEVVDEETGETRTVRVTVTLRFRDGKVEVVDVKVEELPSA [r9_361_TrROS_Hall] | 4.49 ± 0.066 | 4.18 ± 0.086 | 3.43 ± 0.092
15 | SEPPPKIKIKEVEYNPDDGYLTIPVTHPNGPKMRVKFRPPDGKTQEIPPNSPTITIPLPPNMRLTEIEVDSA [r9_113_TrROS] | 2.79 ± 0.29 | 3.22 ± 0.33 | 3.51 ± 0.31
16 | SETVEIEIELPDGTKVTITVDKDGKVHITIEVPEDNPELLEKGSIEELAKKLAEELGLSEKDVEVTVLPPSA [r9_401_TrROS_Hall] | 2.45 ± 0.24 | 2.8 ± 0.27 | 2.98 ± 0.29
17 | SEVVDTFSPPVTGSGEPRDFEIRLIKDENGNPVSVTMFDPVTGVEYPPDVSLEDLGVPPPVVEAFEAARRSS [r1_354_JUSTAS] | 0.0636 ± 0.062 | -0.0908 ± 0.069 | -0.48 ± 0.08
18 | SEVVFTLKDKPSPEELLKALAAVPGFSLETILKNTKVSPGKTGPKLTIKKEDFEKLEKENPEALEIIRSGSA [r9_160_TrMRF] | 1.01 ± 0.11 | 1.09 ± 0.089 | 1.2 ± 0.026
19 | SFGMIEIENEAFLPDGFRFKVEVWVMVDPDNGNLMIMLDIEIEPIPPPPPPPEPKPVKDKNGDWKPANDMSA [r9_898_TrROS] | 3.79 ± 0.14 | 3.12 ± 0.18 | 1.82 ± 0.14
20 | SFHVERDPEDNTIYIHFPPGMDPLELAKSLLKELREQQDDGPIKIHVHYGDWVFEIDIKKGKIEVRPPGESA [r9_224_TrROS] | 1.19 ± 0.16 | 1.23 ± 0.18 | 1.41 ± 0.1
21 | SFIRKDPDGTYVIMGRMPPNMPIEEFLENLPGFKIKDVEYQPDPENGYWYFTLVITPRGKVKIDWVPMGDSA [r9_238_TrROS] | 1.91 ± 0.11 | 2 ± 0.11 | 2 ± 0.03
22 | SFNISVSVEPDDDKYKVTIWIQVDPEEFPGQPPTPSVIEEIARELARDWGIKEVEIEPPPNGYYRHTFPLSA [r9_883_TrROS] | 2.25 ± 0.057 | 1.88 ± 0.1 | 1.33 ± 0.032
23 | SFTPEQVKDIAKTIANRMYDNGYEVEVDVEVEPVNNMPYVEIEFEWRDPDGQPWKFEIIIHPDGDIEIYPSA [r9_1027_TrROS] | 2.7 ± 0.065 | 2.43 ± 0.21 | 1.28 ± 0.16
24 | SFTVERNVYRIENPPKLVVNVIITAEDGTPVPPEVVEEAVRELEKAGFPVKKVSVTPLPDGSVLVTVEVDVS [r1_408_TrMRF] | 2.13 ± 0.071 | 2.52 ± 0.083 | 2.84 ± 0.1
25 | SGATLFIGRFPGEGTLIAVAKLPNGKEIVISFGNYPEGIAGIAALARELDPRAEIKHIELVPPDSVPPEFSA [r9_137_TrMRF] | 1.49 ± 0.11 | 1.45 ± 0.11 | 1.37 ± 0.038
26 | SGATVTVSKDGRTYTVTVSPNATVTVEVRDPTSTSTYTQTVPPGQPTTVSLPLPSDVSSSVTIASIDVGASA [r9_1152_JUSTAS] | 0.656 ± 0.088 | 0.592 ± 0.072 | 0.439 ± 0.025
27 | SGFKVYIPDADLDAAVAVAKALVEKGYDTLLVDSPEVLKAIKEAIPDVKVEPVPVLPPVPPLPGEAEALFSA [r9_639_TrMRF] | 0.573 ± 0.092 | 0.684 ± 0.076 | 0.71 ± 0.021
